In assay [1] the target is RSV clinical isolate A2001/2-20 fusion (F) protein (respiratory syncytial virus strain A2001/2-20). Put plainly: co-IP; 293T cells co-transfected with EGFR and an RSV F construct; RIPA lysates 24 h after transfection; F precipitated with motavizumab on protein-A magnetic beads overnight at 4°C, washed in RIPA; blots for EGFR and RSV F, ratio of EGFR to F1.
Assay [2] deals with Epidermal growth factor receptor (UniProt P00533).

With “Epidermal growth factor receptor (from UniProt P00533 25-1210)”, the fold ratio of co-precipitated EGFR to F, against A2 F in assay [1] worked out at 2.8 fold.

Take “RSV clinical isolate A2001/2-20 fusion (F) protein (natural protein)”: the ratio of p-EGFR to EGFR by Western blot in serum-starved HEp-2 cells 24 h after transfection with 2–20 F, against A2 F in assay [2] is 4.45 fold.

For the origin of these results see article PMC4859522.
